From patent CN113621063A (JIANGSU QUANXIN BIOMEDICAL CO LTD; JIANGSU SAIFUSHI …, dated 2021) come the findings set out here.

Assay [1] has as its target T1, 人IFNAR1 (on HEK Blue IFNα/β cells, Daudi cells, human whole blood cells) (human, UniProt P17181 28-557).
T1 sequence (looked up): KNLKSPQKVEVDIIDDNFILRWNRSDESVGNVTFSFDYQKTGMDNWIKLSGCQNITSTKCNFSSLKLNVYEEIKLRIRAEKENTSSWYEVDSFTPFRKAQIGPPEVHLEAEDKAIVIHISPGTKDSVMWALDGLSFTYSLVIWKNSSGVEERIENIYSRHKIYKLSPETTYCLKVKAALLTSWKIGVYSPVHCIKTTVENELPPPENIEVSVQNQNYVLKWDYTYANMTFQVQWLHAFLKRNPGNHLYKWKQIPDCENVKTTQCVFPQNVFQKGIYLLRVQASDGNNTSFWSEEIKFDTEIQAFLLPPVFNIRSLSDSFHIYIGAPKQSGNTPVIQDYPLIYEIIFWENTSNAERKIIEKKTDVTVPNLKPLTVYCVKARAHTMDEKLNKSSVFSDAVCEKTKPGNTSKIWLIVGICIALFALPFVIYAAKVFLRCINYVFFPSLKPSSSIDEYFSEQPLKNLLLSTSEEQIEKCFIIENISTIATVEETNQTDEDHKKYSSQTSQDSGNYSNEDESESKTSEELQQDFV
The experiment in a line: cell-based or functional assay.

A further assay has as its target T2, 人干扰素α受体1(IFNAR1) (human, UniProt P17181 28-436).
T2 construct: Soluble antigen flowed over the captured antibody in the Biacore assay; also called 人IFNAR1; Human Interferon alpha/beta Receptor 1
T2 sequence: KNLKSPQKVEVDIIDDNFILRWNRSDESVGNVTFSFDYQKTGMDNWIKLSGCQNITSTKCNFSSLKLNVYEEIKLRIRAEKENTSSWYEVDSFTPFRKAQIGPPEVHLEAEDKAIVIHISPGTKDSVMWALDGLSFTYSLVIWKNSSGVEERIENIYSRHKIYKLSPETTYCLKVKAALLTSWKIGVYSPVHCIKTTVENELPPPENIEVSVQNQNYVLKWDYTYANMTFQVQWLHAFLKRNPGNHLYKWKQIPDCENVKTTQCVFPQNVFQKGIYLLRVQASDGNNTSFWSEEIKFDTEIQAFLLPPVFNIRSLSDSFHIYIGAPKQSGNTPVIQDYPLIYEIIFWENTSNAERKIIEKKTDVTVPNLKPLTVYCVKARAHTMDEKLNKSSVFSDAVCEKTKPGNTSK
The assay is described as follows: SPR, Biacore T200, antibody captured on Protein A chip, antigen in flow, 25℃, 1:1 model, mean of three runs.

B1: Anifrolumab (antibody, V domains shown)
VH: EVQLVQSGAEVKKPGESLKISCKGSGYIFTNYWIAWVRQMPGKGLESMGIIYPGDSDIRYSPSFQGQVTISADKSITTAYLQWSSLKASDTAMYYCARHDIEGFDYWGRGTLVTVSS
VL: EIVLTQSPGTLSLSPGERATLSCRASQSVSSSFFAWYQQKPGQAPRLLIYGASSRATGIPDRLSGSGSGTDFTLTITRLEPEDFAVYYCQQYDSSAITFGQGTRLEIKR
Regarding B1, in assay [1], the 抑制干扰素诱导的Daudi细胞增殖活性的EC50 came to 31.7 ng/mL, the “抑制干扰素诱导的HEK Blue IFNα/β细胞中1/2磷酸化活性的IC50” value was found to be 4.43 ng/mL and the 抑制干扰素诱导的全血释放CXCL10/IP10活性的IC50 was 562 ng/mL.

B2: QX006N(HZD1203-45-IgG4.1) (antibody, V domains shown)
VH: EVQLVESGGGLVQPGGSLRLSCAASGFSLSSYYMTWVRQAPGKGLEWVSVINVYGGTYYASWAKGRFTISRDNSKNTLYLQMNSLRAEDTAVYYCAREDVAVYMAIDLWGQGTLVTVSS
VL: AIQMTQSPSSLSASVGDRVTITCQASQSISNQLSWYQQKPGKAPKLLIYDASSLASGVPSRFSGSRSGTKFTLTISSLQPEDFATYYCLGIYGDGADDGIAFGGGTKVEIK
notes: Humanized rabbit clone 1203#; The human IgG1 constant region was replaced by human IgG4 (plasmid pHZDCH-362VH-Hu6-IgG4.1) and the light chain plasmid is pHZDCK (kappa); also called 抗人干扰素α受体1单克隆抗体QX006N; 重组人源化抗IFNAR1单克隆抗体
With B2, in assay [1], the 抑制干扰素诱导的Daudi细胞增殖活性的EC50 is 29.9 ng/mL, the “抑制干扰素诱导的HEK Blue IFNα/β细胞中1/2磷酸化活性的IC50” value amounted to 5.23 ng/mL and the 抑制干扰素诱导的全血释放CXCL10/IP10活性的IC50 is 698 ng/mL. In the assay with 人干扰素α受体1(IFNAR1), this molecule showed a Kd of 0.108 nM, a koff of 3.76e-05 s⁻¹ and a kon of 347000 M⁻¹ s⁻¹.
